Substrate: CCCC(=O)Oc1ccc([N+](=O)[O-])cc1
Test: purified protein
Type: biochemical, Pseudideonella sakaiensis
[1] = 50 mM potassium phosphate pH 7.5, 50°C or 55°C (50°C is the optimum of this enzyme)
[2] = 50 mM potassium phosphate pH 7.5, 50°C or 55°C (55°C is the optimum of this enzyme)

Protein | Km [1] [mmol/L] | kcat [1] [s⁻¹] | kcat/Km [1] [M⁻¹ s⁻¹] | Km [2] [mmol/L] | kcat [2] [s⁻¹] | kcat/Km [2] [M⁻¹ s⁻¹]
FAST-PETase (Pseudideonella sakaiensis; D186H/N233K/R224Q/R280A/S121E) (protein, FAST-PETase, C-terminal 6xHis, pET28a, E. coli Origami 2(DE3), Ni-NTA) QTNPYARGPNPTAASLEASAGPFTVRSFTVSRPSGYGAGTVYYPTNAGGTVGAIAIVPGYTARQSSIKWWGPRLASHGFVVITIDTNSTLDQPESRSSQQMAALRQVASLNGTSSSPIYGKVDTARMGVMGWSMGGGGSLISAANNPSLKAAAPQAPWHSSTNFSSVTVPTLIFACENDSIAPVNSSALPIYDSMSQNAKQFLEIKGGSHSCANSGNSNQALIGKKGVAWMKRFMDNDTRYSTFACENPNSTAVSDFRTANCS | 0.88 ± 0.16 | 0.724 ± 0.0532 | 824 ± 112 |  |  | 
S1v1-FAST-PETase (Pseudideonella sakaiensis; D186H/N233K/R224Q/R280A/S121E) (protein, artificial peptide S1v1 (AEAEAHAH)2 fused to N-terminus via PT-linker …, C-terminal 6xHis, E. coli Origami 2(DE3), Ni-NTA) QTNPYARGPNPTAASLEASAGPFTVRSFTVSRPSGYGAGTVYYPTNAGGTVGAIAIVPGYTARQSSIKWWGPRLASHGFVVITIDTNSTLDQPESRSSQQMAALRQVASLNGTSSSPIYGKVDTARMGVMGWSMGGGGSLISAANNPSLKAAAPQAPWHSSTNFSSVTVPTLIFACENDSIAPVNSSALPIYDSMSQNAKQFLEIKGGSHSCANSGNSNQALIGKKGVAWMKRFMDNDTRYSTFACENPNSTAVSDFRTANCS |  |  |  | 0.86 ± 0.15 | 0.581 ± 0.0392 | 679 ± 72.2
FAST-PETase-S1v1 (Pseudideonella sakaiensis; D186H/N233K/R224Q/R280A/S121E) (protein, artificial peptide S1v1 (AEAEAHAH)2 fused to C-terminus via PT-linker …, C-terminal 6xHis, E. coli Origami 2(DE3), Ni-NTA) QTNPYARGPNPTAASLEASAGPFTVRSFTVSRPSGYGAGTVYYPTNAGGTVGAIAIVPGYTARQSSIKWWGPRLASHGFVVITIDTNSTLDQPESRSSQQMAALRQVASLNGTSSSPIYGKVDTARMGVMGWSMGGGGSLISAANNPSLKAAAPQAPWHSSTNFSSVTVPTLIFACENDSIAPVNSSALPIYDSMSQNAKQFLEIKGGSHSCANSGNSNQALIGKKGVAWMKRFMDNDTRYSTFACENPNSTAVSDFRTANCS |  |  |  | 1.22 ± 0.18 | 1.36 ± 0.0918 | 1110 ± 138

— paper PMC12190498, “Improving the Catalytic Activity and Thermostability of FAST-PETase with a Multifunctional Short Peptide” (Biomolecules, 2025)
